Measurements taken from US20030040042A1, “Recombinant fibroblast growth factors” (published 2003).

Experiments:
[1] = molecular target: FGF receptor on Balb/c 3T3 cells
[2] = molecular target: FGF receptor on Balb/c 3T3 cells; experiment: competition with [125I]-bFGF on Balb/c 3T3 cells, no heparin
[3] = molecular target: FGF receptor on Balb/c 3T3 cells; experiment: competition with [125I]-bFGF on Balb/c 3T3 cells, 1 ug/ml heparin

Chain of bFGF-C78/96S (P09038 134-288 C211S/C229S limits assumed): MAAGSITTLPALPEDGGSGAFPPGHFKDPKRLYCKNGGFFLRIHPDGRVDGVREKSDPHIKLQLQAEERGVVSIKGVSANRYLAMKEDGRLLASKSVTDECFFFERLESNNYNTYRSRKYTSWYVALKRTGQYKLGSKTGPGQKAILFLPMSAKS
Chain of KR128, 129ST (P09038 134-288 K261S/R262T limits assumed): as the sequence (P09038 134-288 C211S/C229S limits assumed) above, with S78C, S96C, K128S, R129T counted along it

| Substance | 3T3 Mito., 1 ug/ml heparin (ED50 wild type / ED50 analog x 100%) (% of wild type) [1] | 3T3 Mito., no heparin (ED50 wild type / ED50 analog x 100%) (% of wild type) [1] | FGF-Rc Comp. (ED50 analog / ED50 wild type FGF) [2] | FGF-Rc Comp. (ED50 analog / ED50 wild type FGF) [3] |
| --- | --- | --- | --- | --- |
| K95T (from UniProt P09038-2) (ligand) | 170 | 100 |  |  |
| bFGF-C78S (from UniProt P09038-2) (ligand) |  |  | 0.3 | 0.25 |
| bFGF-C96S (from UniProt P09038-2) (ligand) |  |  | 0.3 | 0.8 |
| bFGF-D46A (from UniProt P09038-2) (ligand) |  |  | 0.5 |  |
| bFGF-D99A (from UniProt P09038-2) (ligand) | 280 | 150 | 0.04 | 0.03 |
| bFGF-E100A (from UniProt P09038-2) (ligand) |  |  | 0.8 | 1 |
| bFGF-E100S (from UniProt P09038-2) (ligand) |  |  | 1.1 | 0.5 |
| bFGF-E108A (from UniProt P09038-2) (ligand) |  | 180 | 2.5 | 2.5 |
| bFGF-K27M (from UniProt P09038-2) (ligand) |  |  | 0.3 | 0.2 |
| bFGF-K55I (from UniProt P09038-2) (ligand) | 8 | 1 | 2 | 1.6 |

Continued, values first:

| 3T3 Mito., 1 ug/ml heparin (ED50 wild type / ED50 analog x 100%) (% of wild type) [1] | 3T3 Mito., no heparin (ED50 wild type / ED50 analog x 100%) (% of wild type) [1] | FGF-Rc Comp. (ED50 analog / ED50 wild type FGF) [2] | FGF-Rc Comp. (ED50 analog / ED50 wild type FGF) [3] | Substance |
| --- | --- | --- | --- | --- |
|  | 185 | 2 | 0.8 | KR128, 129ST (from UniProt P09038-2) (ligand) |
| 250 | 210 |  |  | R106T (from UniProt P09038-2) (ligand) |
| 160 | 118 | 0.2 | 0.1 | bFGF-C78/96S (from UniProt P09038-2) (ligand) |
|  |  | 1 | 1.3 | bFGF-D28K (from UniProt P09038-2) (ligand) |
|  |  | 2.5 | 2.5 | bFGF-D50A (from UniProt P09038-2) (ligand) |
| 100 | 12.6 | 50 | 40 | bFGF-E105S (from UniProt P09038-2) (ligand) |
|  | 315 | 0.4 | 0.4 | bFGF-H59N (from UniProt P09038-2) (ligand) |
|  |  | 0.1 | 0.05 | bFGF-K35S (from UniProt P09038-2) (ligand) |
